The test system of the series is GST-AcrIIA16_Lmo.

As to Myc-tagged SpyCas9-sgRNA, the “target DNA cleavage by SpyCas9 co-immunoprecipitated with the Acr” value is reported as “SpyCas9 co-purified with AcrIIA16Lmo is not inhibited”.

These data come from patent US20220380421.
